This is an account of results in patent publication US20210009663A1 (published 2021).

The target of assay [1] is T1, Zika virus envelope protein, strain H/PF/2013 (French Polynesia 2013) (Zika virus). In words: cell-based or functional assay.
Assay [2] has as its target T1, Zika virus envelope protein, strain ….

T1 sequence (A0A024B7W1 291-794): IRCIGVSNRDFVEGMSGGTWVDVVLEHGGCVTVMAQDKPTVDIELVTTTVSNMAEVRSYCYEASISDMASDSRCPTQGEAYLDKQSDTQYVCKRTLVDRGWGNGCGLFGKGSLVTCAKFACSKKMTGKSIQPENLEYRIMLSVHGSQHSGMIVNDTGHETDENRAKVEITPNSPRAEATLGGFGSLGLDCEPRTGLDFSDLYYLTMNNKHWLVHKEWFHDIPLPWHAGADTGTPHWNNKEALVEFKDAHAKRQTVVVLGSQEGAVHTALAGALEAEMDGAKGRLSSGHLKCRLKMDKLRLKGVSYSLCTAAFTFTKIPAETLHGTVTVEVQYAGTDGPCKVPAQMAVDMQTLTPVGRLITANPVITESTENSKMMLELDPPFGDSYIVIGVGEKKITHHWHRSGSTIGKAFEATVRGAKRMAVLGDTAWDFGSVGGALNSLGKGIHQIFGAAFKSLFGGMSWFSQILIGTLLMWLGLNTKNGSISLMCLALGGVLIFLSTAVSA

B1: mAb 8 (antibody, V domains shown)
VH: EVQLLESGGGLVQPGGSLRLSCAASGFSFSTYSMHWVRQAPGKGLEWVSAISGEGDSAYYADSVKGRFTISRDNSKNTLYLQMNKVRAEDTAVYYCVGGYSNFYYYYTMDAWGQGTMVTVSS
VL: DIVMTQSPASLSLSPGERATLSCRATQSISTFLAWYQQKPGQAPRLLIYDASTRASGIPARFSGSRSGTDFTLTITRLEPEDFAVYYCQQRYNWPPYSFGQGTKLEIK
B1: in assay [1], the “ADE in THP1.2S cells, viral titers at peak enhancement” value is ≥ 3 fold and the PRNT50 stood at 5.09 µg/mL.

B2: fusion loop targeting pan-flavivirus antibody 4G2 (antibody, V domains shown)
VH: EVQLQQSGPELVKPGTSVKISCKTSGYTFTEYTIHWVKQSHGKSLAWIGGIDPNSGGTNYSPNFKGKATLTVDKSSSTAYMDLRSLSSEDSAVYFCARIYHYDGYFDVWGAGTAVTVSS
VL: DIKMTQSPSSMYASLGERVTITCKASQDINSYLTWFQQKPGKSPKTLIYRANRLIDGVPSRFSGSGSGQDYSLTISSLDYEDMGIYYCLQYDEFPPTFGGGTKLEIKR
A word on the Kd: it is the concentration at which binding is half-saturated. A low value points to higher affinity. In the case of B2, the affinity in assay [2], expressed as Kd, was 10.3 µg/mL.
